{
  "source": "the DeepSol protein solubility set",
  "data": [
    {"test": "soluble on expression in E. coli; label from the status in PepcDB or PDB records", "values": [
      {"sequence": "MRTEKEMIDLIMNTAKEDERIRAVIMNGSRVNPNVKKDCFQDFDIIYAVKDIRSFTSNHNWIHRFGEIMIVQMPEEMSLIPADEDGKFPYLMQFMDGNRIDLTLAPVELINNFVRQDSLSKLLLDKDNCMEGFPPASDKDYLIKKPTEKEFLDCCNEFWWCSTNVAKGLWREELSYVKGMLDGPVRDMLIVMLEWHIGMKTDFIVNAGKFGKHFEKYIEKDMWVQFKRTFSNAEYENIWESFFDMGNLFREVANEIANAYGYPYPQGDDDRVTSYLKHVKALPKDSTSIY", "soluble on expression in E. coli": "not soluble"},
      {"sequence": "MSLSTDTAPAQTMHAGRLIARRLKASGIDTVFTLSGGHLFSIYDGCREEGIRLIDTRHEQTAAFAAEGWSKVTRVPGVAALTAGPGITNGMSAMAAAQQNQSPLVVLGGRAPALRWGMGSLQEIDHVPFVAPVARFAATAQSAENAGLLVDQALQAAVSAPSGVAFVDFPMDHAFSMSSDNGRPGALTELPAGPTPAGDALDRAAGLLSTAQRPVIMAGTNVWWGHAEAALLRLVEERHIPVLMNGMARGVVPADHRLAFSRARSKALGEADVALIVGVPMDFRLGFGGVFGSTTQLIVADRVEPAREHPRPVAAGLYGDLTATLSALAGSGGTDHQGWIEELATAETMARDLEKAELVDDRIPLHPMRVYAELAALLERDALVVIDAGDFGSYAGRMIDSYLPGCWLDSGPFGCLGSGPGYALAAKLARPQRQVVLLQGDGAFGFSGMEWDTLVRHNVAVVSVIGNNGIWGLEKHPMEALYGYSVVAELRPGTRYDEVVRALGGHGELVSVPAELRPALERAFASGLPAVVNVLTDPSVAYPRRSNEGHHHHHH", "soluble on expression in E. coli": "not soluble"},
      {"sequence": "MGSDKIHHHHHHMTPIPFYVPVGNECELFETAWQRRLPLLLKGPTGCGKTRFVTHMAARLQRPLFTVSCHDDLTAADLTGRFLIKGGETVWVDGPLTRAIREGGICYLDEIVEARKDVTVVLHPLTDDRRMLPLERTNEILHAPDTFMLVVSYNPGYQNILKSLKPSTRQRFVALSFNFPPPEIELEIIASESGLARDRCTALVNLATRLRLLKDVDLEESVSTRLLVYCATLMAAGLDPYQAAQAALVEPLSDETEVQQGLLELIHATFG", "soluble on expression in E. coli": "not soluble"},
      {"sequence": "MGEVQREKVAVIIGPTAVGKTKLSIDLAKALNGEIISGDSMQIYRTMDIGTAKVTKAEMDGIPHYMIDIKNPEDSFSVAEFQERVRKHIREITERGKLPIIVGGTGLYIQSVLFDYQFTDDAGDVIYREQREKLALERGVEYVHEKLQEVDPESAERIHANNVRRVIRALEIFHTTGEKMSEQIEKQEKELLYDVSLIGLTMDREMLYDRINLRVDLMMEQGLLEEVEGLYNRGIRDCQSIQAIGYKEIYDYFENRASLEDAVSQLKTNSRRYAKRQLTWFRNKMDVTWFDVTDGEKTSEILRYIEGKLQVKSNNSK", "soluble on expression in E. coli": "not soluble"},
      {"sequence": "GPLGSPPSKEILTLKQVQEFLKDGDDVVILGVFQGVGDPGYLQYQDAANTLREDYKFHHTFSTEIAKFLKVSLGKLVLMQPEKFQSKYEPRMHVMDVQGSTEASAIKDYVVKHALPLVGHRKTSNDAKRYSKRPLVVVYYSVDFSFDYRTATQFWRNKVLEVAKDFPEYTFAIADEEDYATEVKDLGLSESGGDVNAAILDESGKKFAMEPEEFDSDALREFVMAFKKGKLKPVIKSQPVPKNNKGAAAS", "soluble on expression in E. coli": "soluble"},
      {"sequence": "MKKKPLTPEQLDDAKRLKELFNAKKKALGISQESVAHELGVGQSAVNQFLNGVNPLNITNAAAFAKVLNEPISSFSPSLAKELAKMAESLSITTRSGAKDKPAVSVANSYPLISWISAGNWYEAIEPYTLRDIEIWPESTKHAHESAFWLSVKGDSMTSPSGISFPEGMIILVDPEKEPMPGNFVIAKLTDDNEATFKKLVVDAGIKYLKPLNPAYRLIELNGNCKILGVVVDARWLQID", "soluble on expression in E. coli": "not soluble"},
      {"sequence": "FTGFFIGPMAEVTIPLVGLGVDGALLFAQRGVKVGDESIRQNGLDIPINLKYTIGLGSALGIYVAAGPDFYFNFSGDKNYGELGRLNKKNAQVGINVGAGVKLLRHLQVGANYNIPLNKTAEWKEADFSYKTKMWQISAAYIF", "soluble on expression in E. coli": "not soluble"},
      {"sequence": "PPRKKVATGRRDITKKSEGKPHPTQTYEHELLATQLSNKKMMPFKSQIRARSFDEYKDWVCHDGEEFLLILSGEVMFYSEFYEPVVLSEGDSVYYDANMGHMLTSVSEEDAQILWVTAK", "soluble on expression in E. coli": "not soluble"},
      {"sequence": "MIVDTSVWIAYLSTSESLASRWLADRIAADSTVIVPEVVMMELLIGKTDEDTAALRRRLLQRFAIEPLAPVRDAEDAAAIHRRCRRGGDTVRSLIDCQVAAMALRIGVAVAHRDRDYEAIRTHCGLRTEPLF", "soluble on expression in E. coli": "not soluble"},
      {"sequence": "MTLNSLPLLRMGTVPLASRISTPLSLRLVSLSLERIRCAGTLRAPFPLPLYFSPGEQPLLHMALPLAARQHFLEHGYAIVPNVLSSSVVERIRSAALASTTARFRSFAHLPNVHSLLKSTPKCTDPLQDGLMSHLQKRRYILRYYRDMRRHKRRLRRAAKAFLNGRDVSELGREDMLRLSEMVCAEAQKVWSRGCTSTVKTDLQMLTAINQYRANAWMTNAQLEAVLRDNEEFVKPLSQLAEVVGGVARPVIFGDVPLLREAYGNPVGYHCLAPTIGTRTNARVSKGGGEATAVSMVLFTYTPTPLCLPPFVLRNSQHAVRRQYLHSVHAERLWRPFAPMEADIRDQLRRFQFDASVVGQPLLAAMAGPSSTPAAPVIGPGTVMVVDPHLMMAFGGNMTPQSEVLYRINVVAENARPHLMAPSWIRGWRTMPEEVHFASPVVFPPLYVE", "soluble on expression in E. coli": "not soluble"},
      {"sequence": "MGSDKIHHHHHHMWFKNLMTYRLTKPLDWDLAQLQTQLEDCQFHPCGTQDQSKFGWSAPLRGSDLLYFSVGKQILLIAKKEEKILPANVVKRELDDRIESLEQKENRKLKKVEKQTLKDDVVMNLLPRAFSKNQHTALWIDTENNLIHIDAASSKRAEDALALLRKSLGSLPVVPLAFANEPSTILTNWILQDNLPHWLLALEEAELRGSQEDSVIRCKKQPLENEEILALLQDGKKVVSKLALEWEDTLTFVFNEDCTIKRLKFADTVREKNDDILKEDFAQRFDADFVLMTGILAKLTENLLDEFGGEKARL", "soluble on expression in E. coli": "not soluble"},
      {"sequence": "MSLKITHVEVHRIDVPAASPPFRWRDGLSGSAPVGDGAVLHIGTDEGAEGVSVFARPGAYSTLRDLVDRVFRAELVGADPFQREWLWHRVWELDRIHELPLPTLGLIDIALWDLAGRYHGEPVWRLLGGFREAIPAYASTSTFSSVAEFLDVADQCLALGYRGIKLHAWGDARRDAELCLALRDHVGPDVPLMYDGSAGFDLPDAIRLGRALSEADYLWYEEPIREFSISAYQRLAEAVDVPLLVAETSDGAHMNAADFIRAGAATFGVRAGTTLRGGITGAMRTAHLADAFRLRAEVHGSDIPNHHLCMAISNTTYYESLVTSVNVVRERHVDDQGLVHAPAGPGIALPLDFGYGNELLPFVEQPREGHHHHHH", "soluble on expression in E. coli": "soluble"},
      {"sequence": "MDGNQYEAIFLNYFRGIFPNADNLNVKCVKRMSEQQMKTTISRHGMRCTVLNGKDKISSYTVKKIVETPGKREYYGVRDIFAFKLLDMMGVGPKVHFVSNGEVGDDVGLFIVTEDD", "soluble on expression in E. coli": "not soluble"},
      {"sequence": "MVTLASHLDACPDAAIWGSSKTENLGVEKIIVNVISNSNIRYVLVCGTESRGHLAGHSLLAIHANGIDEQGRITGSQGAIPFIENISGTAVERFQQQVTVLNRIGLNDPEEIRRIVEDYRDKGEAYPEEPMLVCAPKKRQTSFAVPTSGDVIISGEFVMDSKAGIIYTAESL", "soluble on expression in E. coli": "not soluble"},
      {"sequence": "MGSDKIHHHHHHMGKKHTSSYEVAYYDGDFTGAMKIPALLAVVIKVSEEQTELLGRDAAYVAQFGLGWVITNYEIEIHRLPKVGEKVAITTQAMSYNKYFCYRNFWVHDEEGKECVFVKSTFVLMDQKNRKISSVLPEIIAPFASAAITKIYRHEKIEKVTEGNFLPYRVRFFDIDGNQHVNNAIYFNWLLDVLGYDFLTTHQPKKILVKFDKEVEYGQEVESHYEIVEQENQLKTRHEIRIDGQTYCEANIDWTN", "soluble on expression in E. coli": "not soluble"},
      {"sequence": "MAHHHHHHMGIVRSRLHKRKITGGKTKIHRKRMKAELGRLPANTRLGARRVSPVRARGGNFKIRALRLDTGNFAWASEAIAHRVRLLDVVYNATSNELVRTKTLVKNCIVAVDAAPFKRWYAKHYGIDLDADKKSTKAAVAAEKKGRKSAHAAADKYDVNKASPKLQREWTRRRRNHRVEKAIADQLREGRVLARITSRPGQSGRADGILLEGAELQFYLKRLEKKKK", "soluble on expression in E. coli": "soluble"},
      {"sequence": "MGSSHHHHHHSSGLVPRGSHMGGGRSTETSSSSGGDGGATKKKVVVGTDAAFAPFEYMQKGKIVGFDVDLLDAVMKAAGLDYELKNIGWDPLFASLQSKEVDMGISGITITDERKQSYDFSDPYFEATQVILVKQGSPVKNALDLKGKTIGVQNATTGQEAAEKLFGKGPHIKKFETTVVAIMELLNGGVDAVITDNAVANEYVKNNPNKKLQVIEDPKNFASEYYGMIFPKNSELKAKVDEALKNVINSGKYTEIYKKWFGKEPKLDRLKQ", "soluble on expression in E. coli": "soluble"},
      {"sequence": "MGSDKIHHHHHHMDSEIIKALKRFGFTQQESIMYVTLCRHGALTGYEAAKLAGISRSNAYAALSSLVEKGGAVVASDDTSKYVPTPRKELLVTIRRHCDETLEFLEQHLPEEQPVEMPYLTVTGYQNTMDKVRNMLRLAQLRVYISMHSGNAAQLKEDMAACAARGLKVVILSDADPQISGAIFMHNAAGTGHIKLIADTREVITGVVDQAARTGQCLYSANEHLVYLMREALLNEIELIKIRSGMSGAEPEESPTRGK", "soluble on expression in E. coli": "not soluble"},
      {"sequence": "KFGASQDVVKWQEVTSNLPELSKKLMSSSSEPLSDDEMADLTLALRTRLHYQPEDSTGWLLLGRIALANRDVTTAIDSMKKSYALEPKDPDVMLGYAQALMLSQDEMDQATARSLLGKLMQQDYVDLRVFSLLAFDAFERKDYPAAIKYWGIMQQMIGPDDSRYESLSRSIDHARKQMGEVVSPDKSVAVTINVAPEAQLDPNAVLIVSIHRADGSPMPVAAARYPLGSFPRTVVLDDGNAMMQGQKLSSLEKLIVRVRADSDGNVATRDQDWHGESDVVEFGQPVAVTIDKQYQ", "soluble on expression in E. coli": "not soluble"},
      {"sequence": "MMGNDSYSSNRGSSRDVLSFLQNFLGGFYAKYGIEVKLVGGLSLSKFYYAFDAERNQFLARHFLPVLSYIKKDFNARAALGIVNVDIYEPGFNFIFGLAHPGLKVAVVSLYRLYPEFYGNPPDRKLLKERALKEVMHELGHVFGLGHCPNPKCVMHFSNSIIDTDIKSWMYCESCLRKLEKNLARSHVLEHHHHHH", "soluble on expression in E. coli": "not soluble"},
      {"sequence": "APRTLYDKIWDDHVVHQSEDGTCLLYIDRHLVHEVTSPQAFEGLRMTGRKVRAPEKTIAVPDHNVPTTEGRDTKIDNEESRIQVEALDKNARDFGINYYPVSDIRQGIVHIVGPEQGWTLPGMTVVCGDSHTATHGAFGALAHGIGTSEVEHVLATQTLIQKKSKN", "soluble on expression in E. coli": "not soluble"},
      {"sequence": "MGSDKIHHHHHHMALYEPFPNYIWNLSVSIAMESGGQIGEIVDMCQPIIDAASNGGDAGTPQFMKQWAAYGDKLIALAAEDEARGRMFSASNKLERASLYLLVAERMQGHGAPGRKESYAKARDAFDKSTALGKINRERVEIPLGKGTMPALYTRAPGNGPHPVVVYCNGLDSCKELLYWSRLPEALARRGISTICVDQPGSGEALRLQDLPVDPHSENWASKAVDWLEQQPDVDPKRIGMTGISLGGHFAPRAVAYEPRFASGAVWGANHNWREVQDKRLKREGENPVPHYWAHVMWAFGASDMDDFMVKSEDMNLNGHMDRIKVPFLVTHGADDRQISVSYADDLYDQLVNSPRREKVIFTAREGGVEHVGADNMAYGRDCIADWFAETLGGTTA", "soluble on expression in E. coli": "not soluble"},
      {"sequence": "MSLTSQITSNSPVKWKRRTRHDTCGKITLFALQKTMYFDNLSTKKHNLDNLELERSCFEISETMDSSLSIITYSMSVHSLQKNGEPMKQEKQQFIKTDWTIDMINRRQFEKYAIDILTATKDIHRGGWVERIDNKAWQYVRVYENGDIEVLITLQIIRFHKYFDTPVWLQFNPNHLLPADYVQLDHVMKYVDHSHLTRADLANDIYNINLQRYDFGLFGVTRDIYRSLSGDLETRYWGRRKSERQIRLYDKMREMKKHGKADDIPDGITDWWRLEFQFRGGKVESWQEEVEGHHHHHH", "soluble on expression in E. coli": "not soluble"}
    ]}
  ]
}
